Some results are limits rather than exact numbers.

The source of these data is US12710427B2, “Anti-human neurotensin receptor 1 antibody and use thereof” (National Health Research Institutes, priority 2020, dated 2026).

For one assay, the system named is A549. As to the kind of experiment: In vitro cell cytotoxicity assay (CellTiter-Glo). The format is cell-based. As to the method:
(§1) The number of living cells were determined using the CellTiter-Glo® Luminescent Cell Viability Assay (Promega G7571). Cells were plated in 96-well opaque Costar plates (Cat number 136101). In brief, 500-2500 cells in 90 μL media were added to each well in quadruplicate and allowed to adhere for 16 hours. Anti-NTSR1 (dose range: 0-500 nM), anti-NTSR1-MMAE (dose range: 0-500 nM) or Paclitaxel (dose range: 0-100 nM) were added in […] 72-120 hours, medium was removed, and 200 μL of CellTiter-Glo® viability reagent contain culture medium (1:1) was added to each well and placed on an orbital shaker in the dark for 2 minutes. The plate was allowed to sit at RT for 10 minutes before being read on a GloMax® Explorer Multimode Microplate Reader (GM3500).
(In ATP-based viability assays light output follows the ATP content of the culture.)

In the next assay the test system is H1299. In words: In vitro cell cytotoxicity assay (CellTiter-Glo). The format is cell-based. The procedure:
as §1

Another assay deals with HA22T-Luc. In words: In vitro cell cytotoxicity assay (CellTiter-Glo). The format is cell-based. As to the method:
as §1

The next assay concerns PC-3. In words: In vitro cell cytotoxicity assay (CellTiter-Glo). The format is cell-based. As to the method: as §1
In a further assay the test system is HA22T. As to the kind of experiment: In vitro cell cytotoxicity assay (CellTiter-Glo). The format is cell-based. As to the method: as §1
The next assay has as its system Mahlavu. As to the kind of experiment: In vitro cell cytotoxicity assay (CellTiter-Glo). The format is cell-based. The procedure: as §1
Assay [1] has as its target T1, NTSR1 ECL2 peptide (Homo sapiens, UniProt P30989). In words: Surface plasmon resonance with immobilized ECL2 peptide. The settings on record: SPR, 1:1 binding model. As to the method: The interaction of NTSR1-specific mAbs with extracellular loop 2 (ECL2) peptides of NTSR1 was measured by surface plasmon resonance using an Open SPR (Nicoya, Canada) instrument. Biotin-conjugated ECL2 peptides were immobilized on a streptavidin-coated sensor chip by injecting the peptides diluted in HBS-EP5 buffer saline (20 mM HEPES, 250 mM NaCl, 3 mM EDTA, 0.05% Tween 20 and 0.5% BSA, pH 7.4) at a concentration of 10 μg/ml at a flow rate of 30 μl/min. For kinetic experiments, NTSR1-specific mAbs diluted in HBS-EP5 at concentrations ranging from 24 to 1.5 nM were injected at a flow rate of 30 μl/min over the immobilized ECL2 peptides. Binding of the NTSR1-specific mAbs at different concentrations to the immobilized ECL2 peptides were analyzed using the TraceDrawer software (Nicoya, Canada). Association rate (ka), dissociation rate (kd), and affinity (KD) were calculated using global analysis, fitting the data to a simple 1:1 binding model.
Target sequence in this assay (P30989 206-234 limits assumed): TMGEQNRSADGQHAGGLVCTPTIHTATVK
On the technique in general: SPR reads the build-up and loss of mass on a sensor chip optically.

For a further assay, the target named is T2, NTSR1 on A549 cells (Homo sapiens, UniProt P30989).
T2 construct: endogenous in cells; host or cells: A549 (NSCLC)
As to the kind of experiment: Flow cytometry (FACS) binding of anti-NTSR1 antibodies on A549 cells. As to the method: A total of 1×10^6 cells were reacted with an anti-NTSR1 antibody in 100 μL of FACS buffer (PBS containing 0.5% BSA) for 60 minutes at 4° C. and washed two times to remove excess antibody. Secondary FITC (BD Pharmingen™) conjugated mouse anti-human IgG antibodies were incubated for an additional 60 minutes on ice. Cells were washed again and followed by an additional incubation with 1 ml PBS containing 0.5 mg/mL propidium iodide at 4° C. for 10 minutes. Data were collected on 10,000 living cells by FACS (Bio-Red S3e cell sorter). Fluorescence intensity from channel FL-1 was calculated with Flow Jo flow […] cytometry analysis software.
A general note: Flow cytometry measures light scatter and fluorescence of single cells or particles in a stream.

Assay [2] concerns the target T1, NTSR1 ECL2 peptide. In words: Kon (M^-1s^-1). The procedure: (§2) Table printed on a drawing sheet, FIG. 2
Head of the field: Kon (M^-1s^-1)
(§3) The patent's description of the figure: FIG. 2 is a graph showing affinity and kinetics data of h7C3-3. The binding affinity between h7C3-3 and NTSR1 ECL2 peptide was determined by surface plasmon resonance (SPR).
(§4) First copying reader's note: Table stands under the sensorgram plot headed h7C3-3 inside the same frame.
(§5) Where the first naming reader finds the target: description_of_the_figure: The binding affinity between h7C3-3 and NTSR1 ECL2 peptide was determined by surface plasmon resonance (SPR).

For assay [3], the system named is cyclic ECL2 peptide of NTSR1. As to the kind of experiment: NTSR1-binding affinity ELISA (alanine scanning variants). More on the design: species or system human. The settings on record: h7C3-2 variants. As to the method:
The NTSR1-binding capacity of different antibodies were measured by ELISA. Briefly, NeutrAvidin 96-well plates (Pierce Cat:15128) were coated with cyL2-Biotin peptides at a final concentration of 5 μg/ml at […]. On the following day, the coating solution was removed, and the plates were blocked with 5% (v/v) non-fat dry milk in phosphate buffer saline (PBS) for 1 hour. After washing with PBST, gradient concentrations of anti-NTSR1 antibodies were added in triplicate. After 1 hour of incubation, the plate was washed three times with PBST, followed by the addition of horseradish peroxidase (HRP)-conjugated goat anti-human IgG Fc antibody (100 μL) into each well for an additional hour at RT. Finally, 100 μL of tetramethylbenzidine (TMB) substrate was added into each well to produce color for visualization. After 2 minutes of incubation, 100 μL of 2M H2SO4 was used to stop the reaction. The absorbance of each well was read at 450 nm with a plate reader. Flow cytometry

In the next assay the target is T3, NTSR1 (Homo sapiens, UniProt P30989).
T3 construct: Solid tumors were excised from PC-3 xenograft mice without treatment, followed by immunohistochemistry staining using antibodies specific for NTSR1; from tissue; host or cells: PC-3 prostate cancer xenograft tumour grown in mice
As to the kind of experiment: Immunohistochemistry staining of PC-3 xenograft tumor tissue. To be noted: 2 μg/ml antibody. As to the method: Deparaffinized tissue sections (4 μm) were subjected to heat-induced epitope retrieval in Tris-EDTA buffer (pH 9) at 95° C. for 30 minutes. The sections were blocked with inhibitor CM at 37° C. for 4 minutes. The slides were incubated with primary antibody including 2 μg/ml anti-NTSR1-B12 (SC-376958, Santa Cruz Biotechnology) and different […] antibody clones (7C3, h7C3-2 and h7C3-3) for 1 hour. The slides were then incubated with appropriate secondary antibodies; OmniMap anti-mouse-HRP for anti-NTSR1-B12 and anti-human-HRP for 7C3, h7C3-2 and h7C3-3 at RT for 30 minutes. The staining was performed with diamino-benzidine tetrahydrochloride.

The test system of the next assay is A549 cells. In words: Internalization of NTSR-1 antibody (flow cytometry). The format is cell-based. The settings on record: A549, 10 μg/ml. The procedure:
NTSR-1 antibody was used for flow cytometry analysis to compare the NTSR1 expression level in different lung and HCC cell lines, including A549, H1299, HA22T and Mahlavu. A total of 1×10^6 cells were reacted with the h7C3-3 antibody in FACS buffer for 60 minutes at 4° C. and washed two times to remove excess antibody. Cells were then transferred to 4° C. or 37° C. for 0, 0.5, 2, 5, 24 hours and followed by an additional incubation with secondary anti-human IgG Fc-PE (BioLegend) antibody for 60 minutes at 4° C. Cells were washed again, and data were collected by BD LSRFortessa. Fluorescence intensity from channel FL-1 was calculated with Flow Jo flow cytometry analysis software.

The target of assay [4] is T1, NTSR1 ECL2 peptide. In words: Koff (s^-1). The procedure: as §2
Head of the field: Koff (s^-1)
as §3, §4, §5

Assay [5] deals with NTSR1-expressing A549 cancer cells. In words: Internalization of h7C3-3 or h7C3-3-ADC in A549 cells (flow cytometry). The format is cell-based. To be noted: A549, 1 μg/ml, 37° C. for 90 minutes. The procedure:
A total of 1×10^6 cells were reacted with the indicated antibody or ADC in 100 μL of FACS buffer for 60 minutes at 4° C. and washed to remove excess antibody or ADC. Cells were then transferred to 4° C. or 37° C. for 90 minutes. To determine the relative number of h7C3-3 or h7C3-3-ADC on the cell surface, cells were stained with saturating amounts of FITC (BD Pharmingen™) conjugated mouse anti-human IgG antibodies and incubated for additional 60 minutes on ice. Cells were washed again and followed by an additional incubation with 1 ml PBS containing 0.5 mg/mL propidium iodide at 4° C. for 10 minutes. Data were collected on 10,000 living cells by FACS (Bio-Red S3e cell sorter). Fluorescence intensity from channel FL-1 was calculated with Flow Jo flow cytometry analysis software. Preparation of anti-NTSR1 antibody-drug conjugates (ADCs)

T2 sequence (P30989 whole entry): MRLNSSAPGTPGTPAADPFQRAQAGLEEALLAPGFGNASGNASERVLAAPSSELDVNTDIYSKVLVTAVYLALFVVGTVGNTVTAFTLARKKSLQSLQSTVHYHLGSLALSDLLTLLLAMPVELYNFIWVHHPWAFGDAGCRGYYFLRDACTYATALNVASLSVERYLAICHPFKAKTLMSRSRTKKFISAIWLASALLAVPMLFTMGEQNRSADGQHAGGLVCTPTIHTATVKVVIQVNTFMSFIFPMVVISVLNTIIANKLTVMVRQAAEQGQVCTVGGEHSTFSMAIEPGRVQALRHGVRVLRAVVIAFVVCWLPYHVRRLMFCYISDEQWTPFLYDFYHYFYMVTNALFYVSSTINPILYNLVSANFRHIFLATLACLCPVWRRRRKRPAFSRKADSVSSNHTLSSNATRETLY
T3 sequence (P30989 whole entry): as above

B1: h7C3-3: 7C3 variant bearing T28A in CDR H1, Y100H in CDR H3 and S97A in CDR L3 (antibody, V domains shown)
VH: QVQLQQPGSVLVRPGASVKLSCKASGYAFTSSWIHWAKQRPGQGLEWIGQIRPNSGNTYYNEKFKVKATLTVDTSSSTAYVDLSSLTSEDSAVYYCARYHYGFDYWGQGTLVTVSS
VL: DVLMTQTPLSLPVSLGDQASISCRSSQSIVHSNGNTYLEWYLQKPGQSPKLLIYKVSNRFSGVPDRFSGSGSGTDFTLKISRVEAEDLGVYYCFQGAHLPWTFGGGTKLEIKR
Consider B1, for which the IC50 in the assay on A549, in the assay with H1299, in the assay with HA22T-Luc, with PC-3, in the assay on HA22T and in the assay on Mahlavu was over 500 nM in each case. Moreover, the affinity with NTSR1 ECL2 peptide [1], expressed as Kd, was 0.3 nM. The “FACS binding (%, 1 μg/ml)” value in the assay with NTSR1 on A549 cells (A549 cells, antibody 1 μg/ml) stood at 98.7%. In addition, the “FACS binding (%, 10 μg/ml)” value in the assay with NTSR1 on A549 cells (A549 cells, antibody 10 μg/ml) came out at 100%. The “binding on cell surface” value with NTSR1 on A549 cells (A549 cells, one hour incubation at 4° C.) was “have binding efficiency on cell surface”. Besides, the “affinity for NTSR1 on A549 cells compared with h7C3-2” value in the assay with NTSR1 on A549 cells (FACS, h7C3-2 variant) was “higher affinity”. Besides, the EC50 (usually the concentration that produces a half-maximal response) with NTSR1 on A549 cells (relative mean fluorescence intensity (MFI) on A549 cells) came to 1.1 µg/mL. Moreover, the “Kon” value with NTSR1 ECL2 peptide [2] stood at 441000 M⁻¹ s⁻¹. For the same molecule, the “binding affinity to peptide compared with h7C3-2 (in words)” value in [3] is on record as “higher binding affinity”. Also, the immunohistochemistry staining entry in the assay with NTSR1 is “clustered and more intense”. Also, the “mean fluorescence intensity (MFI) upon shifting cells from 4° C. to 37° C. (internalization)” value in the assay on A549 cells is listed as “decreased gradually”. Also, the “Koff” value with NTSR1 ECL2 peptide [4] worked out at 0.000134 s⁻¹. The internalization efficiency result in assay [5] was “internalized efficiently”.
